Test results reported in publication PMC5735301 (Oncogene, 2017).
Several values for one entry are separate records, joined by “and”; a condition that tells them apart may be missing. Identical values can stand only once.

Target: the molecule itself

B1: RXRα (protein of Supplementary Figure S1f; tetramer and dimer) (natural protein)
chain: MDTKHFLPLDFSTQVNSSLTSPTGRGSMAAPSLHPSLGPGIGSPGQLHSPISTLSSPINGMGPPFSVISSPMGPHSMSVPTTPTLGFSTGSPQLSSPMNPVSSSEDIKPPLGLNGVLKVPAHPSGNMASFTKHICAICGDRSSGKHYGVYSCEGCKGFFKRTVRKDLTYTCRDNKDCLIDKRQRNRCQYCRYQKCLAMGMKREAVQEERQRGKDRNENEVESTSSANEDMPVERILEAELAVEPKTETYVEANMGLNPSSPNDPVTNICQAADKQLFTLVEWAKRIPHFSELPLDDQVILLRAGWNELLIASFSHRSIAVKDGILLATGLHVHRNSAHSAGVGAIFDRVLTELVSKMRDMQMDKTELGCLRAIVLFNPDSKGLSNPAEVEALREKVYASLEAYCKHKYPEQPGRFAKLLLRLPALRSIGLKCLEHLFFFKLIGDTPIDTFLMEMLEAPHQMT
**Q.** How did the “stoichiometry N” value turn out when B1 was run?
**A.** 4 and 2
